{"source": "paper PMC5717350", "about": "“The human CTF4-orthologue AND-1 interacts with DNA polymerase α/primase via its unique C-terminal HMG box” (Open Biology, 2017)", "binders": {"B1": {"name": "GST-BNTD (B subunit amino acids 1–78) (domain or fragment, human, UniProt Q14181 1-78, looked up)", "chain": "MSASAQQLAEELQIFGLDCEEALIEKLVELCVQYGQNEEGMVGELIAFCTSTHKVGLTSEILNSFEHEFLSKRLSKAR", "notes": "human DNA polymerase α B subunit, residues 1-78 (four-helix bundle N-terminal domain); also called GST-B(1–78); B N-terminal domain; source: E. coli Rosetta2(DE3), purified (Ni-NTA agarose)"}, "B2": {"name": "Fluorescein-labelled Pol α CIP peptide (152–171) (peptide)", "peptide": "DLSKDGLLGDILQDLNTETP", "modifications": "also: fluorescein label, position not given here", "notes": "source: synthetic peptide (Genosphere Biotechnologies)"}, "B3": {"name": "fDNA (oligos A+C) (mixed)", "DNA 1": "CTTCCGAGACCTTGCCCATCCCGTAGAACCTGTTATCCAA", "DNA 2": "GCTACCTTTGAACCTACGATGATGGGCAAGGTCTCGGAAG"}}, "key": {"[1]": {"target": "T1, Full-length His10-myc-tagged AND-1 (1–1129) (human, UniProt O75717 1-1129)", "T1 construct": "the oligomeric state was measured only on the SepB constructs; also called His-myc-AND-1; human CTF4-orthologue AND-1; source: Sf9 insect cells (baculovirus, MultiBac), purified (Ni-NTA, Q-Sepharose)", "T1 sequence (looked up)": "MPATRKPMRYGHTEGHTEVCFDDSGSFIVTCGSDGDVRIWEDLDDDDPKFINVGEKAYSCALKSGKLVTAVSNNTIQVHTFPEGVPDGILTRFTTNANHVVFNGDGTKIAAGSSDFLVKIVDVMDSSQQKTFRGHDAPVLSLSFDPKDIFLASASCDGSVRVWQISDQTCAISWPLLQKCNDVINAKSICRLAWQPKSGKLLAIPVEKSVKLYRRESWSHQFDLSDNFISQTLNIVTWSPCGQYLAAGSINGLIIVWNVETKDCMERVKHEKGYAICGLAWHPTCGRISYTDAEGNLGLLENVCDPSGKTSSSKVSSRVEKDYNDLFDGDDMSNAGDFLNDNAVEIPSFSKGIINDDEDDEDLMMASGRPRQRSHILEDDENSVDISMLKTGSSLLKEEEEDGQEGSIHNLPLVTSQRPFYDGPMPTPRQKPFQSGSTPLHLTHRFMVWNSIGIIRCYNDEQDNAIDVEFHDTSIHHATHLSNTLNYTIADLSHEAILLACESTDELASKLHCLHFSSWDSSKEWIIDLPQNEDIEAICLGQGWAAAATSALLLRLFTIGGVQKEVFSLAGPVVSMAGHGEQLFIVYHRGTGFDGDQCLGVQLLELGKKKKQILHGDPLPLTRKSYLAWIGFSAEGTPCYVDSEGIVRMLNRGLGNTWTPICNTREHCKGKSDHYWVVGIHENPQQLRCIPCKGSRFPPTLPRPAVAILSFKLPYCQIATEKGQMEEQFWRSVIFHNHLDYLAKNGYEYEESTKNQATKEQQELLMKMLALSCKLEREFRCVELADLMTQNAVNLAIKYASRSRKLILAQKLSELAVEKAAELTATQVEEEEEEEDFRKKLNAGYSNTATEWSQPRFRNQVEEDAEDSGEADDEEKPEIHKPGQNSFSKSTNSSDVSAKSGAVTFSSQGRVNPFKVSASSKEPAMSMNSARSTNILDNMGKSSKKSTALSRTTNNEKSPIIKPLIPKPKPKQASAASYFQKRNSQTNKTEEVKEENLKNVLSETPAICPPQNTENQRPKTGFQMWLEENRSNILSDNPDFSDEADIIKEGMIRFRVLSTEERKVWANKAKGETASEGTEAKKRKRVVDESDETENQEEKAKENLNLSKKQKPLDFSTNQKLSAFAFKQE", "assay": "pull-down; GST-B fusion proteins (in figure 6a also GST-Pol α CIP, equimolar) bound to 100 µl glutathione agarose, 2.2 nmol AND-1 (1–1129, 316–1129 or 336–826) added as prey; PD buffer, 2.5 mg/ml BSA, 4°C; Coomassie, anti-His western blot in figure 6a", "conditions": "both partners purified"}, "[2]": {"target": "T2, AND-1 SepB + CT (316–1129) (human, UniProt O75717 316-1129)", "T2 construct": "source: E. coli Rosetta2(DE3), purified (Ni-NTA, Q-Sepharose, TEV cleavage, Superdex 200)", "T2 sequence (looked up)": "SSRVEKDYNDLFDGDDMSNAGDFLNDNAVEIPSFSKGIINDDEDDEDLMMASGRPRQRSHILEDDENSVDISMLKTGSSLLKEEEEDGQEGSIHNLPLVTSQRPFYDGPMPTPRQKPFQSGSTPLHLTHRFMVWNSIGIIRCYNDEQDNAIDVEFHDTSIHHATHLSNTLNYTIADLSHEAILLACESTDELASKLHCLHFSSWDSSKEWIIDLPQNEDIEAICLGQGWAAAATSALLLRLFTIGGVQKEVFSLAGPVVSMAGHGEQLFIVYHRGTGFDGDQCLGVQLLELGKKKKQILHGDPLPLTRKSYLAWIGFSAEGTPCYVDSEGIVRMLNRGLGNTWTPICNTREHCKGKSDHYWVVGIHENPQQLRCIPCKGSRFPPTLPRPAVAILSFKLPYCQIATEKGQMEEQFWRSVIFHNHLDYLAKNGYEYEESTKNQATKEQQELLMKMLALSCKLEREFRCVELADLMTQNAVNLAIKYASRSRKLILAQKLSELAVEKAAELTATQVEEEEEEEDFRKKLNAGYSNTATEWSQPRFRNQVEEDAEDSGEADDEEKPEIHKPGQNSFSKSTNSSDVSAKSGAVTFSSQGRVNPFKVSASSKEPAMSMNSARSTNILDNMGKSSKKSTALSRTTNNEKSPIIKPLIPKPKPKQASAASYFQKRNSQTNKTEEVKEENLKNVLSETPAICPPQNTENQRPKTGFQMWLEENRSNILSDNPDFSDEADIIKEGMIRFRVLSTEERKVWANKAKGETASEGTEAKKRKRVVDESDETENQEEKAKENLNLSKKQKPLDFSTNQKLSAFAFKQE", "assay": "pull-down; GST-B fusion proteins (in figure 6a also GST-Pol α CIP, equimolar) bound to 100 µl glutathione agarose, 2.2 nmol AND-1 (1–1129, 316–1129 or 336–826) added as prey; PD buffer, 2.5 mg/ml BSA, 4°C; Coomassie, anti-His western blot in figure 6a", "conditions": "both partners purified"}, "[3]": {"target": "T3, MBP-tagged AND-1CT (837–1129) (human, UniProt O75717 837-1129)", "T3 construct": "also called entire AND-1CT; source: E. coli Rosetta2(DE3), purified (Ni-NTA, Superdex 200)", "T3 sequence (looked up)": "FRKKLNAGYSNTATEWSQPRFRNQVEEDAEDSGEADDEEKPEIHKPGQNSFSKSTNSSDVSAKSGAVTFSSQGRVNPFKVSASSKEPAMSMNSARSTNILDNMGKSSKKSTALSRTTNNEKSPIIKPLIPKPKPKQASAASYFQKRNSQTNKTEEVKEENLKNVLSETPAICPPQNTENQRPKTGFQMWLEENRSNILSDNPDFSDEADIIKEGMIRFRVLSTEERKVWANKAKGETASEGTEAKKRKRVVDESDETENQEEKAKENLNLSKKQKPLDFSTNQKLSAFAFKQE", "assay": "pull-down; MBP-AND-1 constructs bound to 100 µl amylose resin, 25 nmol GST-B added as prey; PD buffer, 2.5 mg/ml BSA, 4°C; eluted with 20 mM maltose; Coomassie", "conditions": "both partners purified"}, "[4]": {"target": "T4, AND-1 (329–826), SepB domain (human, UniProt O75717 329-826)", "T4 construct": "human AND-1, residues 329-826 (SepB domain); residues 329-420 and 824-826 not in the final crystallographic model; Trimer arises from crystallographic symmetry (one protomer per asymmetric unit); also called AND-1 SepB", "T4 sequence (looked up)": "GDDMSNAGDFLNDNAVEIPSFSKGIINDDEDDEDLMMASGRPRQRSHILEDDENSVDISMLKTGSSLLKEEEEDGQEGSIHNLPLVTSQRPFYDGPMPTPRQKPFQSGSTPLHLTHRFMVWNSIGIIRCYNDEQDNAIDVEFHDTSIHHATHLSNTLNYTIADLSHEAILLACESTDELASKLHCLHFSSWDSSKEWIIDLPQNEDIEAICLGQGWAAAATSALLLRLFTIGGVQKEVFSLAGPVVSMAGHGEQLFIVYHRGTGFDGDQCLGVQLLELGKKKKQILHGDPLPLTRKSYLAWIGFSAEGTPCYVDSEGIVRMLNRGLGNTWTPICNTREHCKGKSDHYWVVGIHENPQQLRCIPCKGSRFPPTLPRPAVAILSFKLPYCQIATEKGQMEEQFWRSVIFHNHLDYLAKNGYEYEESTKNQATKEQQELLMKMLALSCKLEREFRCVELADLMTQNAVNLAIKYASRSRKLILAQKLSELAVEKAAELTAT", "assay": "fluorescence polarisation; 30 nM fluorescein-labelled Pol α CIP peptide, AND-1 SepB titrated; 25 mM HEPES pH 7.2, 140 mM NaCl, 5 mM DTT, 5 mM MgCl2, 5% glycerol; 25°C; 96-well plate", "conditions": "both partners purified"}, "AND-1 full length [5]": {"target": "T5, AND-1 full length (human, UniProt O75717 1-1129)", "T5 sequence": "T1 sequence (looked up)", "assay": "fluorescence anisotropy; FP: 25 mM HEPES pH 7.2, 100 mM KCl, 0.5 mM TCEP, 20 nM DNA, 25 C; EMSA: 25 mM HEPES pH 7.2, 100 mM KCl, 5 mM MgCl2, TCEP, 3 uM DNA, 0.75% (so in the source) agarose gel in 0.5x Tris-borate pH 8.3, 4 C", "conditions": "protein: recombinant; tags: His10-myc; chain copies: 3; label: 5' 6FAM; single strand"}, "AND-1CT": {"target": "T6, AND-1CT (human, UniProt O75717 837-1129)", "T6 sequence": "T3 sequence (looked up)", "assay": "fluorescence anisotropy; FP: 25 mM HEPES pH 7.2, 100 mM KCl, 0.5 mM TCEP, 20 nM DNA, 25 C; EMSA: 25 mM HEPES pH 7.2, 100 mM KCl, 5 mM MgCl2, TCEP, 3 uM DNA, 0.75% (so in the source) agarose gel in 0.5x Tris-borate pH 8.3, 4 C", "conditions": "protein: recombinant; tags: none (His6-MBP removed by TEV); label: 5' 6FAM; single strand"}, "AND-1 full length [6]": {"target": "T5, AND-1 full length", "assay": "EMSA; 5 mM MgCl2; FP: 25 mM HEPES pH 7.2, 100 mM KCl, 0.5 mM TCEP, 20 nM DNA, 25 C; EMSA: 25 mM HEPES pH 7.2, 100 mM KCl, 5 mM MgCl2, TCEP, 3 uM DNA, 0.75% (so in the source) agarose gel in 0.5x Tris-borate pH 8.3, 4 C", "conditions": "protein: recombinant; tags: His10-myc; chain copies: 3; label: 5' 6FAM on strand 1; fork, 20 bp duplex (1:1-20 with 2:21-40), unpaired arms of 20 nt (1:21-40 3' arm, 2:1-20 5' arm)"}}, "note": "No end group written: not given here.", "data": [{"binder": "B1", "values": [{"measurement": "binding result", "setting": "[1]", "value": "binds"}, {"measurement": "binding result", "setting": "[2]", "value": "binds"}, {"measurement": "binding result", "setting": "[3]", "value": "binds"}]}, {"binder": "B2", "values": [{"measurement": "Kd", "setting": "[4]", "value": 39000, "unit": "nM"}]}, {"binder": "CTTCCGAGACCTTGCCCATCCCGTAGAACCTGTTATCCAA (ssDNA)", "note": "[ssDNA 40mer (oligo A)]", "values": [{"measurement": "Kd", "setting": "AND-1 full length [5]", "value": "~800", "unit": "nM"}, {"measurement": "Kd", "setting": "AND-1CT", "value": "~800", "unit": "nM"}]}, {"binder": "B3", "values": [{"measurement": "binding result", "setting": "AND-1 full length [6]", "value": "binds"}]}]}
